Measurements as given in article PMC3688800.

How the values were obtained:
[1] = molecular target: Crataeva tapia bark protein (CrataBL) (Crataeva tapia) (UniProt U3KRG0); assay: SEC; Superdex 75 equilibrated in 0.15 M NaCl; at the concentration used in the crystallization trials
bovine trypsin (bovine) = assay: enzyme inhibition assay; chromogenic or fluorogenic substrates in 96-well plates at 37°C; enzyme pre-incubated with CrataBL for 10 min; apparent Ki (Kiapp) by fit to the equation for slow-tight binding; buffer specific for each enzyme (trypsin 40 nM in 0.1 M Tris-HCl pH 8.0 with CaCl2; Factor Xa 21 nM in 0.02 M Tris-HCl pH 7.4, 0.14 M NaCl, 5.0 mM CaCl2, 0.1% BSA)
human Factor Xa (human) = assay: as above

Substance: Crataeva tapia bark protein (CrataBL) (from UniProt U3KRG0 1-165) (natural protein)
- stoichiometry N [1]: 2
- Ki (bovine trypsin (bovine)): 43 µM
- Ki (human Factor Xa (human)): 8.6 µM
